Our source for the 5'(3')-deoxyribonucleotidase activity (dephosphorylation of dUMP) in lysates of HuH7 cells with stable HCV NS3/4A expression, compared with cells with stable EGFP expression values is article PMC3706368.

This assay addresses V5-tagged cdN protein (human) (UniProt Q8TCD5).
Chain of UniProt Q8TCD5 (Q8TCD5 whole entry): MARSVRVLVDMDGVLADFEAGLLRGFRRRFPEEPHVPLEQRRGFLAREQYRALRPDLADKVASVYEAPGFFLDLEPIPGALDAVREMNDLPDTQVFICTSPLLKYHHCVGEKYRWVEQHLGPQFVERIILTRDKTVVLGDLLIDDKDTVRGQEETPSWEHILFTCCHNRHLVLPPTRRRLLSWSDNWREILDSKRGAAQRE

Regarding “myc-tagged full-length NS3/4A protein (natural protein)”, the 5'(3')-deoxyribonucleotidase activity (dephosphorylation of dUMP) in lysates of HuH7 cells with stable HCV NS3/4A expression, compared with cells with stable EGFP expression was 70%.
